Measurements taken from the supplement of paper PMC9170038.

Tests used:
[1] = system: MS2 coat protein; assay: apparent KD of MS2 coat protein; higher = weaker reporter binding; details: Eterna round: R101
Experimental: (§1)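 RNA-MaP: designed FMN/MS2 RNA switches (84 nt design region) are transcribed on-chip within common flanks and titrated with SNAP-549-labelled MS2 coat protein (about 1-3000 nM) in 100 mM Tris pH 7.5, 80 mM KCl, 4 mM MgCl2, without or with 200 uM FMN. Median apparent KD per design; activation ratio = KD,OFF / KD,ON.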

[2] = system: MS2 coat protein; assay: apparent KD of MS2 coat protein; designed switch direction (-1 OFF switch, 1 ON switch): -1; higher = weaker reporter binding; details: Eterna round: R98
Experimental: as §1

[3] = system: MS2 coat protein; assay: apparent KD of MS2 coat protein; designed switch direction (-1 OFF switch, 1 ON switch): 1; higher = weaker reporter binding; details: Eterna round: R98
Experimental: as §1

Row | Sequence | apparent KD of MS2 coat protein ([1]; input ligand: FMN 200 uM) [nM] | apparent KD of MS2 coat protein ([1]; input ligand: none) [nM] | apparent KD of MS2 coat protein ([3]; input ligand: FMN 200 uM) [nM] | apparent KD of MS2 coat protein ([3]; input ligand: none) [nM] | further results
1 | AAAUGAUAUCAGAAGGGCUCCAGCAAAGCUGGAGCAGGAUAUGAGGAUCACCCAUAUCACCUGACGGUCGAAACGACCGUCAGG [#SharedSequence - IExNG1: 7-1] (puzzle (switch architecture): Inverted Exclusion NG 1) | 62.1 | 15.5 |  |  | 
2 | AACCUGACAUAAUAAUGUAGAAAUACAUGAGGAUCACCCAUGUAGGAUAUGCAGUGGAAUACACUGCAGAAGGACAUAGUCAGG [Exclusion NG 3/8-B1] |  |  |  |  | apparent KD of MS2 coat protein ([2]; input ligand: FMN 200 uM): 21.9 nM; apparent KD of MS2 coat protein ([2]; input ligand: none): 14.8 nM
3 | AAGUGAAAUCAGAAGGGCUCCAGCAAAGCUGGAGCAGGAUAUGAGGAUCACCCAUAUCACCUGACGGUCGAAACGACCGUCAGG [#SharedSequence - IExNG1: 5-1] (puzzle (switch architecture): Inverted Exclusion NG 1) | 147 | 21.2 |  |  | 
4 | AAGUUUUUACAAGGAUAUCAGUUGUUUAUAAAUUAAACAUGAGGAUCACCCAUGUAACAAAGGAGUGAGAAGGUGUGUUGGAAA [JR_SSNG2_Sub089] |  |  | 319 | 408 | 
5 | AAUAAAACUCAAGGAUAUCAGUGGCAAAGCCACUGAGAAGGUGAGGAUCACCCACCUACGUGACGCUGGAAACAGCGUCACGAA [#SharedSequence ExNG1 - 33] (puzzle (switch architecture): Exclusion NG 1) | 36.3 | 15.8 |  |  | 
6 | AAUAAACAAUAAAAGAGUCCACGAAACUUCUGAGGAUCACCCAGAAGGGCUGAGGUAAUACCUCAGCAGGAUAUGGACGUGGAC [#SharedSequence IExNG# - 1] (puzzle (switch architecture): Inverted Exclusion NG 3) | 5.09 | 5 |  |  | 
7 | ACAUAAUGGUGAGGAUAUGCACAGGAUCACCGUGUAGAAGGCAUCAGGUAGAAGGUGCAGAGGAUCACCCUGUAAGGAUAUAUC [pwkr2 ssNG1 DX.19] |  |  | 94.6 | 562 | 
8 | ACAUGGAAGCGAGGAUAUGCGGCGGAUUUAAACGCAGAAGGCGUUUAUUUAACUCGCAAUAACAUGAGGAUCACCCAUGUAUAA [AK-NGROCr2-ExNG1-5.1] |  |  |  |  | apparent KD of MS2 coat protein ([2]; input ligand: FMN 200 uM): 59.4 nM; apparent KD of MS2 coat protein ([2]; input ligand: none): 55.9 nM
9 | AGAAACUACGAGAAGGACAUGUGGUCCUUCAAAAAAAUGAGGAUCACCCAUGUAGGAUAUCGUAGUUUCAGGAUCGUGAGAUCA [salish99_ISLExNG1_x101 #HINGE] (puzzle (switch architecture): Inverted Small Loop Exclusion NG 1) | 9.58 | 30 |  |  | 
10 | CACGUCCUCACAGGAUAUGCUGGACUUUGUCCAGCAGAAGGGUGAACAUGAGGAUCACCCAUGUAAAGGACGUGUAUAUUUAAU [Denovo 23] |  |  | 72.5 | 587 | 
11 | CAUGUCCUCACAGGAUAUGCUGGACUUUGUCCAGCAGAAGGGUGAACAUGAGGAUCACCCAUGUAAUGGACAUGUAUAUUUAAG [Mat - Same State NG 1 - Eli mod - D98] |  |  | 49.4 | 902 | 
12 | CCUGACACUUGAGGAUAUGCUCAGGAAUACUGAGCAGAAGGCAGGAAAACCUGAGGAUCACCCAGGUAAGUCAGGAAUAAUAAA [Same State NG1 - A3C, U17G Submission 3A] |  |  | 17.2 | 20.7 | 
13 | CGCUAUGAUGGUUGUAAUAGAGCAUAGGAUAUGCUUGUACAUGAGGAUCACCCAUGUUAUAUUUUGCAGAAGGGUGCAUUUGCG [JR #DistanceFar #Hairpin #NP SLSSNG3 Sub073] (puzzle (switch architecture): Small Loop Same State NG 3) | 30.1 | 59.9 |  |  | 
14 | CUAUUAUAUGUAGGAUAUGCAUAUUAUUAUUGUGCAGAAGGACAUGAGGAUCACCCAUGUAUAUUAUUAUUAUAUAUUAUAUAU (puzzle (switch architecture): Exclusion NG 1) | 11.8 | 16.5 |  |  | 
15 | CUGCAAUUCUUAGGAUAUGCUCAGGAAUACUGAGCAGAAGGAAGAUAUACCUGAGGAUCACCCAGGUUAAACUGGAGCAGAAUA [Same State NG1 - A3C, U17G Submission 8A] |  |  | 32.2 | 181 | 
16 | CUGGUGAUGUAAGGAUAUGCUGAGGAUAACUCAGCAGAAGGUACAUGAGGAUCACCCAUGUAAAUGAAAGAUAAUAAACACCAG [Excusion NG 1/16-B2] |  |  |  |  | apparent KD of MS2 coat protein ([2]; input ligand: FMN 200 uM): 30.9 nM; apparent KD of MS2 coat protein ([2]; input ligand: none): 15.9 nM
17 | GAGCUGCUCUGAGGAUAUGGGUUUAUAAGGACGGGCACGCCCGACAUGAGGAUCACCCAUGUCUACCAGAAGGCAGAAAAGUUC [Mamain] |  |  | 394 | 171 | 
18 | GAUACAUAGCAAGGAUAUCCACAUGAGGAUCACCCAUGUGCGUAAUCUGGGCGGUGGAAGAAAGUGGAGAAGGUGUUAGGUUGA [Atia] |  |  |  |  | apparent KD of MS2 coat protein ([2]; input ligand: FMN 200 uM): 106 nM; apparent KD of MS2 coat protein ([2]; input ligand: none): 64.2 nM

Row | Sequence | apparent KD of MS2 coat protein ([1]; input ligand: FMN 200 uM) [nM] | apparent KD of MS2 coat protein ([1]; input ligand: none) [nM] | apparent KD of MS2 coat protein ([3]; input ligand: FMN 200 uM) [nM] | apparent KD of MS2 coat protein ([3]; input ligand: none) [nM] | further results
19 | GCAGAAGGUGCGGAGGAUCACCCUGUAAGGAUAUGCAUUAGCAAGGAUAUACAGAGGAUCACCCUGUAGAAGGUGCACUACUCU [pwkr2 ssNG3 DX.1] |  |  | 1140 | 1430 | 
20 | GCAGAAGGUGCGGAGGAUCACCCUGUAAGGAUAUGCAUUAGCAAGGAUAUACAGAGGAUCACCCUGUAGAAGGUGCACUUCUGC [pwkr2 ssNG3 DX.9] |  |  | 1310 | 897 | 
21 | GCGUCCCGCAGAGGAUAUGUUGUUCGGCCUACAUGAGGAUCACCCAUGUCAAAGGGCUGAUCCCAACAGAAGGCUGAAGGAUAC [Qumarera] |  |  | 8.73 | 64 | 
22 | GCUCUCACUUGAGGAUAUCGAGUGGAUAACACUCGAGAAGGCAGGGAAACCUGAGGAUCACCCAGGUAACUGGAAAGAGAGCAA [Same State NG1 - A3C, U17G Submission 5D] |  |  | 20.4 | 31.8 | 
23 | GCUUGCGACGCAGGAUAUGGGUGCCUGCACACGAGGAUCACCCGUGUAGAGGAACGGAUUACGUCUCAGAAGGGCGUGGCAGGC [United States 4 - Jieux - Same State NG 2] |  |  | 21.8 | 88.9 | 
24 | GGAGACCUCACAGGAUAUGCUGGACUUUGUCCAGCAGAAGGGUGACUAACAUGAGGAUCACCCAUGUAGGUCUCCAAAUUUAAU [Denovo 58] |  |  | 631 | 40.8 | 
25 | GGAGACCUUACAGGAUAUGCUGGACUUUGUCCAGCAGAAGGGUGAAUACAUGAGGAUCACCCAUGUAUGGUCUCCAAAUUUAAU [jl-ssng1-3.05 #GC_VS_GU_SWITCHING] (puzzle (switch architecture): Same State NG 1) | 121 | 52.2 |  |  | 
26 | GGAGAUACAUGAGGAUCACCCAUGUAGGAUAUCGGGCCCAUACCCGGCGAAAGCCGGGUAUGGGCCGAGAAGGGCGUACACACC [#LOL-5] (puzzle (switch architecture): Small Loop Exclusion NG 3) | 7.47 | 8.26 |  |  | 
27 | GGAGCACACAUUAACAUGAGGAUCACCCAUGUCAAAAGACAUGAGGAUAUGGAUCCGAAAAGGAUCCAGAAGGCAUGGUGCUCC [EliMod 8 - Jieux - Same State NG 3] |  |  | 35.1 | 598 | 
28 | GGAGGAGGAUAAGGAUAUAACAUGAGGAUCACCCAUGUGGAGGAGGAGGAGGAGGAGGAGGAGGGUUAGAAGGUAUGGAGGAGG [First attempt] (puzzle (switch architecture): Exclusion NG 2) | 11 | 16.2 |  |  | 
29 | GGAUAACAUGUAGGAUAUCCAGCAUUGACCAUCGGAGAAGGACAUGAGGAUCACCCAUGUACCGAUACAAUGGAAUAAGGGAAU [xclu_NG1_cac3] |  |  |  |  | apparent KD of MS2 coat protein ([2]; input ligand: FMN 200 uM): 17.9 nM; apparent KD of MS2 coat protein ([2]; input ligand: none): 15.4 nM
30 | GGGUACAUCGGAGGAUAUCAUGUAAAUACAUGAGGAUCACCCAUGUCGAUGGAGACAUAGGAGAUUGAGAAGGCCGAUGUACCG (puzzle (switch architecture): Same State NG 2) | 144 | 74 |  |  | 
31 | UGCUAACUGUAGAAGGGUGACAUGAGGAUCACCCAUGUGCACGCGCGCUUUACGGCGCGCGUGCCACAGGAUAUACAGUUGAGU [Erora] (puzzle (switch architecture): Inverted Same State NG 2) | 55.1 | 43.1 |  |  | 
32 | UGGUACAUGGGAGGAUAUGGGUUGAUAACAUGAGGAUCACCCAUGUUAAAUAAGCCGAGAGGCUACUAGAAGGCCCAUGUACCU [#InverseDoubleMagnetSystem - JL SNG1 3.00 18] (puzzle (switch architecture): Same State NG 2) | 10.6 | 293 |  |  | 
33 | UUAUGAGCGAUAGGAUAUACUGAGAUUGAAUGGGUAGAAGGAUCAAUCGUGUGGAAGACAUGAGGAUCACCCAUGUUACGGGCC [SameState #75 NG1] |  |  | 510 | 221 | 
34 | UUGGUUCUCGUAGGAUAUGUAGGAUAUGCCUACAUGAGGAUCACCCAUGUUCGCAUGGCAGAAGGACAGAAGGACGAUCACCAU [pwkr ssNG2 2FMN +1F5.17] |  |  | 20.8 | 288 | 
35 | UUGGUUGUCGUAGGAUAUGUAGGAUAUUCCUACAUGAGGAUCACCCAUGUUCGCAUGGAAGAAGGACAGAAGGACGAUGACCAU [salish99_SSNG2_001 #endbits investigation] (puzzle (switch architecture): Same State NG 2) | 9.52 | 1280 |  |  | 
